Test results as given in the supplement of paper PMC9112550, “Optimization of the antimicrobial peptide Bac7 by deep mutational scanning” (BMC Biology, 2022).

Each sequence was assayed on Escherichia coli TOP10 (assay: shrunken log2 fold change of peptide-encoding DNA abundance (4.5 h post-induction vs induction); higher = less antimicrobial activity (less host growth inhibition)). Conditions: time post-induction: 4.5 h; library: site-saturation at positions 5, 18, 19, 20.
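Further: peptides expressed intracellularly from a pBAD plasmid library in pooled LB shake-flask culture, induced with 0.3% L-arabinose, DNA abundance read by NGS, three biological replicates, DESeq2 with apeglm shrinkage.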

RRIRARPPRLPRPRPRPRLKPRP was tested. Which “shrunken log2 fold change” value did it give?
Its value is 0.547.

With RRIRARPPRLPRPRPRPRMCPRP as the sequence, how does the “shrunken log2 fold change” value read?
The value was 0.339.

Which “shrunken log2 fold change” value does the source give for RRIRARPPRLPRPRPRPRMKPRP here?
The value was 0.457.

Which “shrunken log2 fold change” value does the source give for RRIRARPPRLPRPRPRPRMSPRP here?
The value was -0.186.

How did the “shrunken log2 fold change” value turn out when RRIRARPPRLPRPRPRPRNEPRP was run?
The value was 0.557.

How did the “shrunken log2 fold change” value turn out when RRIRARPPRLPRPRPRPRNLPRP was run?
Its value is -0.0356.

For RRIRARPPRLPRPRPRPRPFPRP, which “shrunken log2 fold change” value is on record?
Its value is 0.562.

With RRIRARPPRLPRPRPRPRSEPRP as the sequence, how does the “shrunken log2 fold change” value read?
The value was 0.42.

RRIRARPPRLPRPRPRPRWTPRP was tested. Which “shrunken log2 fold change” value did it give?
Its value is 0.145.

For RRIRARPPRLPRPRPRPRYYPRP, which “shrunken log2 fold change” value is on record?
Its value is -0.116.

RRIRARPPRLPRPRPRPSCTPRP was tested. Which “shrunken log2 fold change” value did it give?
Its value is 0.44.

With RRIRARPPRLPRPRPRPSCVPRP as the sequence, how does the “shrunken log2 fold change” value read?
The value was 0.157.

With RRIRARPPRLPRPRPRPSEAPRP as the sequence, how does the “shrunken log2 fold change” value read?
Its value is 0.52.

How did the “shrunken log2 fold change” value turn out when RRIRARPPRLPRPRPRPSEHPRP was run?
The value was -0.301.

RRIRARPPRLPRPRPRPSESPRP was tested. Which “shrunken log2 fold change” value did it give?
Its value is 0.0591.

With RRIRARPPRLPRPRPRPSFYPRP as the sequence, how does the “shrunken log2 fold change” value read?
The value was -0.155.

How did the “shrunken log2 fold change” value turn out when RRIRARPPRLPRPRPRPSHFPRP was run?
The value was -0.0734.

With RRIRARPPRLPRPRPRPSHNPRP as the sequence, how does the “shrunken log2 fold change” value read?
Its value is -0.245.

For RRIRARPPRLPRPRPRPSHSPRP, which “shrunken log2 fold change” value is on record?
Its value is -0.101.

Which “shrunken log2 fold change” value does the source give for RRIRARPPRLPRPRPRPSICPRP here?
The value was 0.154.

For RRIRARPPRLPRPRPRPSISPRP, which “shrunken log2 fold change” value is on record?
The value was 0.0682.

For RRIRARPPRLPRPRPRPSKKPRP, which “shrunken log2 fold change” value is on record?
Its value is 0.23.

Which “shrunken log2 fold change” value does the source give for RRIRARPPRLPRPRPRPSQNPRP here?
Its value is -0.25.

For RRIRARPPRLPRPRPRPSQYPRP, which “shrunken log2 fold change” value is on record?
The value was -0.00629.

With RRIRARPPRLPRPRPRPSRLPRP as the sequence, how does the “shrunken log2 fold change” value read?
Its value is 0.487.

How did the “shrunken log2 fold change” value turn out when RRIRARPPRLPRPRPRPSRVPRP was run?
Its value is 2.84.

Which “shrunken log2 fold change” value does the source give for RRIRARPPRLPRPRPRPSSDPRP here?
The value was 0.301.

RRIRARPPRLPRPRPRPSSGPRP was tested. Which “shrunken log2 fold change” value did it give?
The value was 0.412.

Which “shrunken log2 fold change” value does the source give for RRIRARPPRLPRPRPRPSSIPRP here?
The value was 0.101.

Which “shrunken log2 fold change” value does the source give for RRIRARPPRLPRPRPRPSSVPRP here?
The value was -0.0486.

Which “shrunken log2 fold change” value does the source give for RRIRARPPRLPRPRPRPSTNPRP here?
Its value is 0.0112.

How did the “shrunken log2 fold change” value turn out when RRIRARPPRLPRPRPRPSTWPRP was run?
The value was -0.0645.

Which “shrunken log2 fold change” value does the source give for RRIRARPPRLPRPRPRPTANPRP here?
Its value is 0.401.

Which “shrunken log2 fold change” value does the source give for RRIRARPPRLPRPRPRPTASPRP here?
The value was 0.74.

With RRIRARPPRLPRPRPRPTDFPRP as the sequence, how does the “shrunken log2 fold change” value read?
Its value is -0.000766.

Which “shrunken log2 fold change” value does the source give for RRIRARPPRLPRPRPRPTHRPRP here?
Its value is 0.46.

For RRIRARPPRLPRPRPRPTKFPRP, which “shrunken log2 fold change” value is on record?
Its value is 0.0943.

With RRIRARPPRLPRPRPRPTLDPRP as the sequence, how does the “shrunken log2 fold change” value read?
The value was 0.777.

Which “shrunken log2 fold change” value does the source give for RRIRARPPRLPRPRPRPTSGPRP here?
The value was 0.343.

Which “shrunken log2 fold change” value does the source give for RRIRARPPRLPRPRPRPTSQPRP here?
Its value is 0.211.

How did the “shrunken log2 fold change” value turn out when RRIRARPPRLPRPRPRPTSVPRP was run?
Its value is 0.52.

For RRIRARPPRLPRPRPRPTTEPRP, which “shrunken log2 fold change” value is on record?
The value was 0.443.

For RRIRARPPRLPRPRPRPTTWPRP, which “shrunken log2 fold change” value is on record?
The value was 0.423.

RRIRARPPRLPRPRPRPTVKPRP was tested. Which “shrunken log2 fold change” value did it give?
The value was 0.143.

With RRIRARPPRLPRPRPRPTVPPRP as the sequence, how does the “shrunken log2 fold change” value read?
The value was 0.56.

Which “shrunken log2 fold change” value does the source give for RRIRARPPRLPRPRPRPTWDPRP here?
Its value is 0.604.

How did the “shrunken log2 fold change” value turn out when RRIRARPPRLPRPRPRPTWFPRP was run?
The value was 0.225.

Which “shrunken log2 fold change” value does the source give for RRIRARPPRLPRPRPRPTWTPRP here?
The value was 0.425.

With RRIRARPPRLPRPRPRPTYLPRP as the sequence, how does the “shrunken log2 fold change” value read?
Its value is -0.023.

RRIRARPPRLPRPRPRPVALPRP was tested. Which “shrunken log2 fold change” value did it give?
The value was 0.411.

Which “shrunken log2 fold change” value does the source give for RRIRARPPRLPRPRPRPVCKPRP here?
Its value is 0.195.

For RRIRARPPRLPRPRPRPVDEPRP, which “shrunken log2 fold change” value is on record?
The value was 0.33.

For RRIRARPPRLPRPRPRPVDHPRP, which “shrunken log2 fold change” value is on record?
Its value is -0.0253.

How did the “shrunken log2 fold change” value turn out when RRIRARPPRLPRPRPRPVDIPRP was run?
Its value is 0.135.

RRIRARPPRLPRPRPRPVEIPRP was tested. Which “shrunken log2 fold change” value did it give?
Its value is 0.0505.

For RRIRARPPRLPRPRPRPVEWPRP, which “shrunken log2 fold change” value is on record?
The value was 0.544.

For RRIRARPPRLPRPRPRPVFIPRP, which “shrunken log2 fold change” value is on record?
Its value is -0.201.

With RRIRARPPRLPRPRPRPVFSPRP as the sequence, how does the “shrunken log2 fold change” value read?
Its value is -0.0817.

Which “shrunken log2 fold change” value does the source give for RRIRARPPRLPRPRPRPVHWPRP here?
Its value is 0.579.

How did the “shrunken log2 fold change” value turn out when RRIRARPPRLPRPRPRPVIRPRP was run?
Its value is -0.055.

Which “shrunken log2 fold change” value does the source give for RRIRARPPRLPRPRPRPVLHPRP here?
The value was 0.288.

With RRIRARPPRLPRPRPRPVMMPRP as the sequence, how does the “shrunken log2 fold change” value read?
The value was 0.0914.

Which “shrunken log2 fold change” value does the source give for RRIRARPPRLPRPRPRPVNPPRP here?
Its value is -0.00864.

How did the “shrunken log2 fold change” value turn out when RRIRARPPRLPRPRPRPVNSPRP was run?
Its value is -0.0786.

How did the “shrunken log2 fold change” value turn out when RRIRARPPRLPRPRPRPVREPRP was run?
The value was 1.01.

RRIRARPPRLPRPRPRPVRRPRP was tested. Which “shrunken log2 fold change” value did it give?
The value was 0.723.

How did the “shrunken log2 fold change” value turn out when RRIRARPPRLPRPRPRPVTRPRP was run?
Its value is 0.35.

With RRIRARPPRLPRPRPRPVTVPRP as the sequence, how does the “shrunken log2 fold change” value read?
Its value is 2.71.

Which “shrunken log2 fold change” value does the source give for RRIRARPPRLPRPRPRPVVNPRP here?
Its value is 0.346.

With RRIRARPPRLPRPRPRPVVSPRP as the sequence, how does the “shrunken log2 fold change” value read?
The value was 0.188.

With RRIRARPPRLPRPRPRPVYMPRP as the sequence, how does the “shrunken log2 fold change” value read?
The value was -0.436.

With RRIRARPPRLPRPRPRPWAGPRP as the sequence, how does the “shrunken log2 fold change” value read?
The value was 0.233.

RRIRARPPRLPRPRPRPWEEPRP was tested. Which “shrunken log2 fold change” value did it give?
Its value is 0.271.

RRIRARPPRLPRPRPRPWFGPRP was tested. Which “shrunken log2 fold change” value did it give?
Its value is 0.118.

With RRIRARPPRLPRPRPRPWFNPRP as the sequence, how does the “shrunken log2 fold change” value read?
The value was -0.142.
